Reference: the DeepSol protein solubility set

Test: soluble on expression in E. coli; label from the status in PepcDB or PDB records

Row | Sequence | soluble on expression in E. coli
1 | MENVNRNHKNSVFSSLFSTPDVLRELYSAIEGIPIPPDIPIDINTLTDILYKGQINDVSFVINNRLVVLIEHQSTINANIPLRLLMYIARVYEKIINRKKLYQSKLEKIPLPEFIVLYNGEKEYSDFQELKLSDAFKDIDGLKLSGIEKIPLELIVQVYNINHGHNPEILKRSETLDSYSIFINKIREYQKEKDSLEKAARSAIIYCIKNNILKDYLEAHASEVLNMLLTEWNQDEAVEVAREEGREEGREEGHENGLKEGKMIIAKNLLEKGSTPEFVREITGLSPEEIEEIELND | soluble
2 | MAHHHHHHMNEIVINNLNYNYYNGIQRTRIKALQNVNLCFERGMRILVCGKNGAGKSTLLSIIAGKKLIKENEVLIFNKQAFHDTDISNKIGYVGEWWSEEYAMNISIKDFCFNYEYTKRYKNLLKLFELDENKIISNLSKGERKKVQIMVNIIVRKDIYIFDEATESLDLVSRKLLLE | soluble
3 | MGSDKIHHHHHHMFKPNYHFFPITGWMNDPNGLIFWKGKYHMFYQYNPRKPEWGNICWGHAVSDDLVHWRHLPVALYPDDETHGVFSGSAVEKDGKMFLVYTYYRDPTHNKGEKETQCVAMSENGLDFVKYDGNPVISKPPEEGTHAFRDPKVNRSNGEWRMVLGSGKDEKIGRVLLYTSDDLFHWKYEGVIFEDETTKEIECPDLVRIGEKDILIYSITSTNSVLFSMGELKEGKLNVEKRGLLDHGTDFYAAQTFFGTDRVVVIGWLQSWLRTGLYPTKREGWNGVMSLPRELYVENNELKVKPVDELLALRKRKVFETAKSGTFLLDVKENSYEIVCEFSGEIELRMGNESEEVVITKSRDELIVDTTRSGVSGGEVRKSTVEDEATNRIRAFLDSCSVEFFFNDSIAFSFRIHPENVYNILSVKSNQVKLEVFELENIWL | not soluble
4 | MPEFVQYVGGHFEEVGKEFMQYFIEIGNLKSNETVLDVGCGIGRMAVPLMNYLSDDGTYYGFDLFNKGITWCKNNISTRRNNFHFEHVDIYNQFYNPDGKEDASQYKFPYEDESFDFIFLTSVFTHLLPKELEHYVREIARVLKKDGRCFITFFLINPESSYYLNAGLSPLGFYHQIDNCYVLNKDIPNFAVAYPEEDIRTLLNKYGLEMQTPPHYGSWCGRTEHTSYQDIILAQKLEHHHHHH | soluble
5 | MSDEISILIQDRKTGQRRNLTLNINITGNIEDLTKDVEKLTEIPSDELEVVFCGKKLSKSTIMRDLSLTPATQIMLLRPKFNSHNENGATTAKITTDSSILGSFYVWCKNCDDVKRGKLRVYCQKCSSTSVLVKSEPQNWSDVLKSKRIPAVCEECCTPGLFAEFKFKCLACNDPAAALTHVRGNWQMTECCVCDGKEKVIFDLGCNHITCQFCFRDYLLSQLERFGFVNQPPHGFTIFCPYPGCNRVVQDVHHFHIMGQTSYSEYQRKATERLIAVDDKGVTCPNVSCGQSFFWEPYDDDGRSQCPDCFFSFCRKCFERNCVCQSEDDLTRTTIDATTRRCPKCHVATERNGGCAHIHCTSCGMDWCFKCKTEWKEECQWDHWFN | not soluble
6 | WTVIGGYLIVAGKDATTNEMLIKRYVEKNDIVFHTLMEGAPFTIIRTEGSEEIPDENILFEVAKFAASHSRAWKLGIGSADVYWVRPDQISKTAESGEYLKK | not soluble
7 | MIIKPAGDSAFLISFGDEISEEINDRVHSLAKAIEKESPEWLVELVPAYSSLLVIYDPLKASYEEVESYLKRISAREVERIKGKTIEIPVAYGGEFGPDIEFVAQYNGLSVDDVIEIHSKPLYRVYFLGFLPGFAYLGGMDERIATPRLEKPRLKVPAGSVGIAGKQTGWYAIESPGGWRIIGRIPLRTFNPGKVPPSIVLPGDYVKFVPIDEKEFWEIYGREWE | soluble
8 | MAHHHHHHMESNNHTTDLPSHAPGVEAAPIAAATPPLTGLAEGAVVTEGASHPKMAAAEPSEATATESPPSPHSTGEAKTQNALAALMSVLDNDEAARRGGTSLRSLQKMCMRVPQLSTELTRPQRFQLYCLLLLEDGDDPAVPGGAAGQEDWTTYTKQALETHVHMAKQAAALFPPPSTSPPTNSPASSTAWAPMRPFTSIRQ | soluble
9 | MGSDKIHHHHHHMAFRVILIENEVTIKVKLNNLIITKCGEDIWIPLDDISMIVLDNLASNLSTRLMCQLAEQGIGLMLYNQQHLPTGFYSAYDNHSRASKVIGFQIDKEQDYYGKLWQQIVKIKIENQAKAYQIMTRDSDGPEKIIEFSKNILIGDKSNREAHAAKVYFNLLMGTSFSRGNEDILLNSGLDYGYAVIRGYIARACVGYGLNTQIGIHHKSEYNRFNLVDDLMEPLRPIVDIVAYNSMKNDKYFTPEHRRKLVSILNMKIMYREKKMYMCNMIENYIEQYASLIMKRTDNIVFPDVYNLIGEEYG | not soluble
10 | GPGSMEEQDQRKPNGGNNGLPVPPSTTETGQGPLQDILGRTPNCQYVKKRLLGQGSFGSAWRVEESATGNVFAAKVMDLNNMSEKDRGFVTNEVKCLSRCCNPHVVRCENAIEREGQLLIVMEYADGGDLYKQIKARVREMKFFREHEVVFIFLQLCLALDHIHSNKMMHRDLKTANILLTTTGLVKLGDFGFSRQYEDSLSNAVGSTFCGTPYYLSPELWHRQPYSKKSEMWALGVVLYEVMALRRPFTGKNMDELITNICHGRCSDLPSSYSASLRDVCNRLLSVDPNTRPTIHELFHEPFIRSNLETLKRSVEKHNRIPADVREAIARCITQSLNTEEPPAHLEEPEPLIGTVKRHTALRGWQKCLLSFDEKQISIRDPSGVDPEEVVPVATLTSVCPIDVMMAGEEFVFAMKNQAGKAFWFMAPSQRAYEQWLTTLQEAAP | soluble
11 | MNKEEQYLLFALSAPMEILNQSCKPAHDSPKMYTGIKEFDLSSSWGINNRDDLIQTIYQMTDDGHANDLAGLYLTWQRSSPEEWKALIAGGSERGLIYTQFVAQTAMCCGEGGIKAWDYVRMGFLSRAGVLNNWLTEEESLWLQSRVYARAHHYYHSWMHYFSAYSLGRLYWQSSQCEDNASLREALTLYKYDSAGSRMFEELAAGSDRFYATLPWQPLTVQPECPVTLKDVSDL | not soluble
12 | MAHHHHHHMELSKYAGLSSERLDCLRNLDIRKRSIYKGSTFSYGNNIYDILHNYSDKQKENKSDGVSVAHDYKDFQRNIKFAGLESEIKNDINIRNRRIKNDMNYRNDNLKDILQNNMNEQNINNSKYFLSDKGYVLTPKRCLARHVDDSEINKYFSTKYAVTDSSTGRTEIMVERKPGCSNIIVQNFSEFDAYGTYKKKDERINRRDSFVHTKMGIVPRDGSCIDNNKCKAQATFTHIHRRDNIAPDNYWLCPTIESDKKNKTKR | not soluble
13 | MGSDKIHHHHHHMKSPEEVTKWVRQRYQRQRWAWLDGGGAWPLQVSLDLPTQKVALADPSAVRTWSSSWADWLAVHPADASRPLPELLTATVAWRNMGEQTLPGALAFSSPECVADYCGDGKVWRRIVSRRATMLARWPALHASGFGSNYTALGEFKDEDFERLLAVLEWLVANPKSGIYLRQLPVPNIDTKWIDLQRRGVVADLFSRIIKPQAALQAVQSFVEGEGAEIDATGQAYSIEKESSNFYDTCGLLRPPVKLRILILCPKLRTQVGGLRDIEATIEDWAQLQLKPRQLLVVENKDTCLAMPDVDGVVAVIKLGNAVALVTRIAWLVRVPVLYWGDIDTYGYSILVQARKKLHDVRSVLMDRSTVETHLDRLVEEGQQTKSIDRSLLTAAELDVYDALLAHDWGTSRRLEQERLEWPSALRTVLSALHQRESKSA | not soluble
14 | SSPSLLEPLLAMGFPVHTALKALAATGRKTAEEALAWLHDHCNDPSLDDPI | soluble
15 | MRYITAGESHGPQLTTIIEGVPAGLPLVADDINEELARRQKGYGRGRRMQIETDQVQIVSGVRHGETLGSPIALVVENRDFAHWTKIMGAEPLTEQEEKEMKRKVTKPRPGHADLNGAIKYGHRDMRNVLERSSARETTVRVAAGAVAKKVLAELGITVAGHVIEIGGVEAKETTYRSIEELKSITEASPVRCLDEEAGNQMIKAIDDAKSNGDSIGGIVEVIVEGMPIGVGSYVHYDRKLDAKLAAAIMSINAFKGVEIGIGFEAAHRPGSEVHDEILWNEEHGYTRRTNNAGGLEGGMTTGMPIVVRGVMKPIPTLYKPLQSVDIDTKEPFTASIERSDSCAVPAASVVAEAVVAWELATALIEQFGLDRMDLIRENIEKHNEYARGF | not soluble
16 | MAQEIELKFIVNHSAVEALRDHLNTLGGEHHDPVQLLNIYYETPDNWLRGHDMGLRIRGENGRYEMTMKVAGRVTGGLHQRPEYNVALSEPTLDLAQLPTEVWPNGELPADLASRVQPLFSTDFYREKWLVAVDGSQIEIALDQGEVKAGEFAEPICELELELLSGDTRAVLKLANQLVSQTGLRQGSLSKAARGYHLAQGNPAREIKPTTILHVAAKADVEQGLEAALELALAQWQYHEELWVRGNDAAKEQVLAAISLVRHTLMLFGGIVPRKASTHLRDLLTQCEATIASAVSAVTAVYSTETAMAKLALTEWLVSKAWQPFLDAKAQGKISDSFKRFADIHLSRHAAELKSVFCQPLGDRYRDQLPRLTRDIDSILLLAGYYDPVVAQAWLENWQGLHHAIATGQRIEIEHFRNEANNQEPFWLHSGKR | soluble
17 | FGLKNNPSSSRPEGLLFYEYQQAKPKQQTAHFALDQMIYEINQSFGYEIIQRAKKLAAS | not soluble
18 | MFVRVMKIAQNKKIVTVYPTTTIRKALMTMNENKYRRLPVVNAGNNKVVGIITSMDIVDFMGGGSKYNLIREKHERNFLAAINEPVREIMEENVITLKENADIDEAIETFLTKNVGGAPIVNDENQLISLITERDVIRALLDKIDENEVIDDYITRDVIVATPGERLKDVARTMVRNGFRRLPVVSEGRLVGIITSTDFIKLLGSDWAFNHMQTGNVREITNVRMEEIMKRDVITAKEGDKLKKIAEIMVTNDIGALPVVDENLRIKGIITEKDVLKYFA | soluble
19 | DTFIGWEPEVTHKKYFAMLDTISQVQGVPEPIIEAVAPLFFANNADQVHPELVASFKQSLESLTGERAVEVARIGRMVFGRRDVIEDAEKFALPTLIAVGREDKPRPVFESYLMHDCITGSELVEIPEAGHISSLEQPEFVNQMLLSFLNKVHA | not soluble
20 | EYVYIMTPYLILDSELEHAIQFAAERGVDVRIIMPGIPDKPIPYALAKTYYQALTKSGVKIYEYTLGFVHSKIFLSDNTKAVVGTINLDYRSLYHHFECAVYLYKVDAIQDIYRDYMDTLNKSRLVSLKDINNI | not soluble
21 | MAAQRRSLLQSEQQPSWTDDLPLCHLSGVGSASNRSYSADGKGTESHPPEDSWLKFRSENNCFLYGVFNGYDGNRVTNFVAQRLSAELLLGQLNAEHAEADVRRVLLQAFDVVERSFLESIDDALAEKASLQSQLPEGVPQHQLPPQYQKILERLKTLEREISGGAMAVVAVLLNNKLYVANVGTNRALLCKSTVDGLQVTQLNVDHTTENEDELFRLSQLGLDAGKIKQVGIICGQESTRRIGDYKVKYGYTDIDLLSAAKSKPIIAEPEIHGAQPLDGVTGFLVLMSEGLYKALEAAHGPGQANQEIAAMIDTEFAKQTSLDAVAQAVVDRVKRIHSDTFASGGERARFCPRHEDMTLLVRNFGYPLGEMSQPTPSPAPAAGGRVYPVSVPYSSAQSTSKTSVTLSLVMPSQGQMVNGAHSASTLDEATPTLTNQSPTLTLQSTNTHTQSSSSSSDGGLFRSRPAHSLPPGEDGRVEPYVDFAEFYRLWSVDHGEQSVVTAP | not soluble
